Legend:
[1] = target: T1, human multimeric vWF (purified vWF HaemateP) (human, UniProt P04275 764-2813); assay: Gyrolab solution affinity, 5 pM caplacizumab pre-incubated with vWF dilution series; lyophilized formulation
T1 construct: vWF purified from HaemateP by size-exclusion chromatography; also called multimeric target vWF; purified HaemateP
Text: (§1) This assay measures the inhibition of ristocetin-induced binding of von Willebrand Factor (vWF) to bound platelet by caplacizumab. [0395] c) The RICO assay is used as pharmacodynamics marker for the pharmacological activity of caplacizumab. The assay measures the rate and degree to which human lyophilized platelets form aggregates after the addition of the antibiotic ristocetin, which mimics shear-induced activation of vWF. [0396] d) Gyrolab-based assay analyses the kinetic interactions of caplacizumab with its multimeric target vWF and determines the affinity constant of caplacizumab to human multimeric vWF. Briefly, affinity determination on the Gyroloab platform was established as follows: Gyrolab Bioaffy 1000 CDs were used. As capture tool, 3000 nM in-house biotinylated purified vWF (purified HaemateP using size-exclusion chromatography) was applied on the columns which were pre-packed with streptavidin-coated beads. Filter-sterilized D-PBS containing 0.01% Tween-20 was used for dilution of the capture tool. […] Free caplacizumab was detected with 50 nM AlexaFluor647-labeled anti-caplacizumab monoclonal antibody diluted in Rexxip F buffer (commercially available detection buffer). […]

[2] = target: T1, human multimeric vWF (purified vWF …); assay: Gyrolab solution affinity, 5 pM caplacizumab pre-incubated with vWF dilution series; liquid formulation
Text: as §1

Kd [1]: 4.46 pM
Kd [2]: 6.84 pM
B1: 12A02H1-3a-12A02H1 (ALX-0081) (VHH)
chain: EVQLVESGGGLVQPGGSLRLSCAASGRTFSYNPMGWFRQAPGKGRELVAAISRTGGSTYYPDSVEGRFTISRDNAKRMVYLQMNSLRAEDTAVYYCAAAGVRAEDGRVRTLPSEYTFWGQGTQVTVSSAAAEVQLVESGGGLVQPGGSLRLSCAASGRTFSYNPMGWFRQAPGKGRELVAAISRTGGSTYYPDSVEGRFTISRDNAKRMVYLQMNSLRAEDTAVYYCAAAGVRAEDGRVRTLPSEYTFWGQGTQVTVSS
notes: Bivalent Nanobody: a single chain of two 12A02H1 domains joined by an AAA linker; It was tested as samples from different formulations and storage conditions; also called caplacizumab; anti-vWF Nanobody caplacizumab
